The data set “SEC-MALS” concerns the molecule itself. Put plainly: SEC-MALS.
The data set “mass photometry” deals with the molecule itself. Put plainly: mass photometry.

Bounds are passed on as bounds.

B1: NIT1 WT (purified recombinant AtNIT1) (enzyme)
chain: MSSTKDMSTVQNATPFNGVAPSTTVRVTIVQSSTVYNDTPATIDKAEKYIVEAASKGAELVLFPEGFIGGYPRGFRFGLAVGVHNEEGRDEFRKYHASAIHVPGPEVARLADVARKNHVYLVMGAIEKEGYTLYCTVLFFSPQGQFLGKHRKLMPTSLERCIWGQGDGSTIPVYDTPIGKLGAAICWENRMPLYRTALYAKGIELYCAPTADGSKEWQSSMLHIAIEGGCFVLSACQFCQRKHFPDHPDYLFTDWYDDKEHDSIVSQGGSVIISPLGQVLAGPNFESEGLVTADIDLGDIARAKLYFDSVGHYSRPDVLHLTVNEHPRKSVTFVTKVEKAEDDSNK
modifications: RED-NHS 2nd Generation dye (in the MST only)
Turning to B1, the “stoichiometry N” value in the data set “SEC-MALS” was 20; in the data set “mass photometry”, not above 10.

As a reminder, the stoichiometry N is a count of units in the complex or per binding partner.
